Source: article PMC5090064, “Coordinated regulation of the ESCRT-III component CHMP4C by the chromosomal passenger complex and centralspindlin during cytokinesis” (Open Biology, 2016)

Experiments:
MKLP1 = MKLP1 (UniProt Q02241); assay: GFP-Trap pull-down, Flag western blot
[1] = target: T1, CPC mini-complex (Survivin full-length, Borealin full-length and INCENP 1–57) (UniProt Q53HL2 1-280; O15392 1-142; Q9NQS7 1-57); assay: atomic force microscopy; purified proteins on mica surfaces without lipid bilayers, imaged under fluid at room temperature; settings: both partners purified
T1 construct: Borealin, full-length, TEV-cleavable His-tagged, pETM vector; Survivin, full-length, 3C-cleavable GFP-tagged, pRSET vector; INCENP residues 1–57 (methods; the results say the first 58 amino acids), untagged, pMCNcs vector; Results call the INCENP piece INCENP 1–58, methods 1–57; also called mini-CPC; copies: + +
T1 sequence (Q53HL2 whole entry, chain 1 of 3, the tested form may be a part): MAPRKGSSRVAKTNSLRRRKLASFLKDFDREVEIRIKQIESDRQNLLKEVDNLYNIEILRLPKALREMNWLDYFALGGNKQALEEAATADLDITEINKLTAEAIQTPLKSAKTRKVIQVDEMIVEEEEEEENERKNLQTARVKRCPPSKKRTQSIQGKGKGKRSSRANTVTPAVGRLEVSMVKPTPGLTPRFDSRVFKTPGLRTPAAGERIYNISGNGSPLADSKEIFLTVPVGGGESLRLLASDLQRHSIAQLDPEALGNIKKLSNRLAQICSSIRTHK
T1 sequence (O15392 whole entry, chain 2 of 3, the tested form may be a part): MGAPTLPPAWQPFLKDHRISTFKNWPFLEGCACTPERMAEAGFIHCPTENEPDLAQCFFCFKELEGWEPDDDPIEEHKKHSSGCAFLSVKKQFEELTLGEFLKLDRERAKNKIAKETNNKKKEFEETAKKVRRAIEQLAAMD
T1 sequence (Q9NQS7 1-57, chain 3 of 3): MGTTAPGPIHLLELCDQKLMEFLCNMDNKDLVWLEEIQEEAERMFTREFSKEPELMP

Molecule | binding against the reference (MKLP1; reference: S210A, sites S214,S215) | binding against the reference (MKLP1; reference: wild type, sites S210,S214,S215) | binding result [1]
CHMP4C (from UniProt Q96CF2) StripleA (S210A, S214A, S215A) | stronger | stronger | –
CHMP4C (purified recombinant, full-length) (natural protein, human, UniProt Q96CF2 1-233, looked up, CHMP4C, human, full-length ORF cloned into pET-His6-msfGFP as a TEV-cleavable His-tagged protein; also called His6-GFP::CHMP4C; purified CHMP4C; source: E. coli BL21 Gold, purified (Ni-NTA, TEV cleavage, Superdex 200); not shown: His6, N-terminal, cleaved) MSKLGKFFKGGGSSKSRAAPSPQEALVRLRETEEMLGKKQEYLENRIQREIALAKKHGTQNKRAALQALKRKKRFEKQLTQIDGTLSTIEFQREALENSHTNTEVLRNMGFAAKAMKSVHENMDLNKIDDLMQEITEQQDIAQEISEAFSQRVGFGDDFDEDELMAELEELEQEELNKKMTNIRLPNVPSSSLPAQPNRKPGMSSTARRSRAASSQRAEEEDDDIKQLAAWAT | – | – | binds
